From the supplement of paper PMC9233669
This sample holds only a part of the variants without activity.

Assays:
biotinyl-Phe-oxazolone = assay: self-aminoacylation, catalytic enhancement (BFO) (fold over background); higher = more active; k-Seq, kA / k0A0; sequences stand for … in GGGAAUGGAUCCACAUCUACGAAUUC…UUCACUGCAGACUUGACGAAGCUG
How it was run: (§1)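 Mutagenized RNA pools with a 21-nt variable region (0.43 μM) were reacted with each biotinyl-aminoacyl-oxazolone at 2–1250 μM for 90 minutes at room temperature, in 50 μL HEPES/NaCl/KCl/MgCl2/CaCl2 buffer containing 5% acetonitrile at pH 6.9–7.0. RNA captured on streptavidin was quantified by triplicate qPCR and by Illumina sequencing. The fraction reacted for each sequence was fit to a pseudo-first-order model with bootstrapping, and catalytic enhancement is the median kA divided by the uncatalyzed rate, taken as the low-activity peak of a bimodal Gaussian fit.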

biotinyl-Ile-oxazolone = assay: self-aminoacylation, catalytic enhancement (BIO) (fold over background); higher = more active; k-Seq, kA / k0A0; sequences stand for … in GGGAAUGGAUCCACAUCUACGAAUUC…UUCACUGCAGACUUGACGAAGCUG
How it was run: as §1

biotinyl-Met-oxazolone = assay: self-aminoacylation, catalytic enhancement (BMO) (fold over background); higher = more active; k-Seq, kA / k0A0; sequences stand for … in GGGAAUGGAUCCACAUCUACGAAUUC…UUCACUGCAGACUUGACGAAGCUG
How it was run: as §1

biotinyl-Val-oxazolone = assay: self-aminoacylation, catalytic enhancement (BVO) (fold over background); higher = more active; k-Seq, kA / k0A0; sequences stand for … in GGGAAUGGAUCCACAUCUACGAAUUC…UUCACUGCAGACUUGACGAAGCUG
How it was run: as §1

biotinyl-Leu-oxazolone = assay: self-aminoacylation, catalytic enhancement (BLO) (fold over background); higher = more active; k-Seq, kA / k0A0; sequences stand for … in GGGAAUGGAUCCACAUCUACGAAUUC…UUCACUGCAGACUUGACGAAGCUG
How it was run: as §1

biotinyl-Trp-oxazolone = assay: self-aminoacylation, catalytic enhancement (BWO) (fold over background); higher = more active; k-Seq, kA / k0A0; sequences stand for … in GGGAAUGGAUCCACAUCUACGAAUUC…UUCACUGCAGACUUGACGAAGCUG
How it was run: as §1

Sequence | self-aminoacylation (biotinyl-Phe-oxazolone) | self-aminoacylation (biotinyl-Ile-oxazolone) | self-aminoacylation (biotinyl-Met-oxazolone) | self-aminoacylation (biotinyl-Val-oxazolone) | self-aminoacylation (biotinyl-Leu-oxazolone) | self-aminoacylation (biotinyl-Trp-oxazolone)
UUUCACCUCGGUCAUCGGGUG [Fam2.2 aminoacylation ribozyme variant] | 38.3 | 3.61 | 3.79 | 4.79 | 5.28 | 6.19
UUUCACCUUGGUCAUCGGGUG [Fam2.2 aminoacylation ribozyme variant] | 45.4 | 4.31 | 6.53 | 5.49 | 5.87 | 6.96
UUUCAUCUAGGUCAUCGGGUG [Fam2.2 aminoacylation ribozyme variant] | 33.7 | 4.37 | 5.04 | 4.51 | 6.45 | 6.47
UUUCCCCUGGUCAUCGAGUGA [Fam2.1 aminoacylation ribozyme variant] | 39.1 | 3.26 | 6.12 | 3.87 | 5.44 | 7.7
UUUCUCCUAGGUCAUCGGGUG [Fam2.2 aminoacylation ribozyme variant] | 32.5 | 5.35 | 7.74 | 5.4 | 9.78 | 8.02
